From US7470669B2, “Isolated polypeptide comprising a leptin fragment” (Serono Genetics Institute, S.A., priority 1999, dated 2008)

Tests used:
[1] = test system: ob/ob mice; assay: Food intake of ob/ob mice under daily subcutaneous injections; assay type: in vivo, mouse; conditions: daily subcutaneous injections of 25 μg over a 12 day period
Procedure: A synthetic peptide with a sequence identical to that of mouse leptin between residues 117-138 was obtained and found to stimulate the oleate-induced binding of ^125I-LDL in primary cultures of rat hepatocytes (FIG. 11B, insert). Daily subcutaneous injections of 25 μg of this synthetic leptin peptide to ob/ob mice had no effect on the food intake over a 12 day period (7.6±0.4 g/day in ob/ob receiving saline and 6.7±0.3 g/day in ob/ob receiving peptide; n=4, NS). Daily injections of 25 μg of mouse leptin caused a reduction of food intake to 4.7±0.5 g/day (n=3; p<0.003 versus controls).

[2] = biological target: T1, LSR α′ (Homo sapiens, UniProt Q86X29); assay: 125I-leptin binding, uptake and degradation in CHO-K1 cells transfected with LSR α′; assay type: cell-based
T1 construct: The full-length LSR α, α′, and β clones were reconstructed in pTracer-CMV2 vector; expressed in transfected cells; host or cells: CHO-K1 (transient with Fugene)
T1 sequence (Q86X29 1-630 isoform Q86X29-4): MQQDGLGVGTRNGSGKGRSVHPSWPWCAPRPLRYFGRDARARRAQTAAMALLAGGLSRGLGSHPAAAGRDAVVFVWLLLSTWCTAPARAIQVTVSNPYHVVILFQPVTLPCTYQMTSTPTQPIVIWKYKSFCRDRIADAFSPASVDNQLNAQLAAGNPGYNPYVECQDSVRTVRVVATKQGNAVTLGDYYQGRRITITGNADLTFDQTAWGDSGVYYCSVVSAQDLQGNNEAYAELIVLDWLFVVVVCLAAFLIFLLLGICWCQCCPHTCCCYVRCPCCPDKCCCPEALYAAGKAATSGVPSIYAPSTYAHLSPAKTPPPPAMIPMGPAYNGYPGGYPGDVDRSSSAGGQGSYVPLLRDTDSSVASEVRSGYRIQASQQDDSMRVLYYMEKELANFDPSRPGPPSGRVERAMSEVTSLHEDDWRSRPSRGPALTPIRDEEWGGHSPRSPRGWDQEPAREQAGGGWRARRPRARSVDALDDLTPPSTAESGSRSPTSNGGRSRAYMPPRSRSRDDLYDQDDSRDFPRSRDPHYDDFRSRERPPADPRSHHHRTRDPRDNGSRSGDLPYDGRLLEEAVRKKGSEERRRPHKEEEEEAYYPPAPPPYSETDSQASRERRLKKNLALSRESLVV
Procedure: FIGS. 3A, 3B, 3C, and 3D show the effect of LSR subunit transfection on leptin binding and degradation in CHO-K1 cells. For FIG. 3A, CHO-K1 cells were transfected with increasing concentrations of the α, (□), α′ (▪) or β (◯) LSR plasmid, or vector alone (●) using Fugene transfection reagent. After 48 h, the cells were washed once in PBS and incubated at 37° C. for 2 h with 10 ng/mL of ^125I-leptin in DMEM containing 0.2% (w/v) BSA, 2 mM CaCl2 and 5 mM HEPES, pH 7.4 (Buffer A). The monolayers were washed and lysed with 0.1 N NaOH containing 0.24 mM EDTA, and the lysates were counted. The results are shown as the amount of cell-associated ^125I-leptin. For FIG. 3B, lysates were prepared from CHO-K1 wild type, stable transfectants of vector or LSR α′ subunit, and PLC, and separated on a 10% SDS-polyacrylamide gel under denaturing and reduced conditions. After transfer to nitrocellulose, Western blots were performed using anti-LSR 170 antibody (can also be done with the human equivalent, 93A). Northern blots were done to detect LSR mRNA in CHO-K1 wild-type versus PLC. RT-PCR analysis was also done in CHO-K1 as compared to PLC. For FIGS. 3C and 3D, confluent monolayers of stable-transfected cell lines expressing LSR α′ subunit (▪) or vector alone (●) were washed once in PBS and incubated at 37° C. for 2 h with increasing concentrations of ^125I-leptin in Buffer A. The amount of cell-associated (FIG. 3C) and degraded (FIG. 3D) ^125I-leptin was then measured as described herein. Results are shown as the mean of triplicate determinations.
CHO-K1 cells were plated at a density of 300,000 cells/36 mm dish the day before transfection. After 24 h, plasmid preincubated with Fugene transfection reagent was added to the cells, which were further incubated at 37° C. Cells were used 48 h after transfection as described in the Brief Description of the Figures.
Stable transfectants were prepared from CHO-K1 cells using Superfect according to the manufacturer's instructions. After introduction of the plasmid into the cell with Superfect, the cells were grown in the presence of 750 μg/mL zeocin. After elimination of untransfected cells, the antibiotic concentration was reduced to 500 μg/mL. Clones were isolated using cloning cylinders, and maintained in tissue culture media containing 100 μg/mL zeocin.
To determine which of the LSR subunits is responsible for leptin binding, CHO-K1 cells were transiently transfected with increasing concentrations of each of the 3 human LSR plasmids (FIG. 3A). CHO-K1 cells were selected because they had the lowest level of endogenous LSR expression of the different cell lines tested. This level is far lower than that of a human hepatocyte cell line (PLC) used to systematically characterize human LSR activity (FIG. 3B). […]

[3] = test system: LSR; assay: 125I-leptin degradation in PLC cells; assay type: cell-based, human; conditions: PLC cells, 2 h incubation
[4] = test system: LSR mRNA; assay: Northern blot of LSR mRNA in leptin-treated rat hepatocytes; assay type: cell-based; conditions: rat hepatocytes after 30 min leptin treatment
Procedure: Northern blots were performed as described previously using as a probe clone 18251 described above (Yen F. T., Masson M., Clossais-Besnard N., Andre P., Grosset J. M., Bougueleret L., Dumas J. B., Guerassimenko, O., and Bihain B. E. (1999). J Biol Chem 274, 13390-13398).

Row | Kd ([2]; CHO-K1 cells stably expressing LSR α′, Lineweaver-Burk transformation, read-out: estimated Kd of leptin binding) [nM] | amount of 125I-leptin degraded as share of that bound and internalized by the cells ([2]; CHO-K1 cells transfected with LSR α′) [%] | Kd relative to that of the Ob-R ([2]; LSR α′ Kd versus Ob-R Kd) [fold] | binding of leptin to CHO-K1 cells ([2]; transient transfection with LSR α′ plasmid, 10 ng/mL 125I-leptin, 2 h 37° C.) | Substance | food intake [1] [g/day] | leptin concentration at which 125I-leptin degradation saturated [3] [ng/mL] | LSR mRNA levels (Northern blots) [4]
1 | – | – | – | – | CSLPQTSGLQKPESLDGVLEAS (listed as Mus musculus) [mouse peptide, mouse leptin fragment residues 117-138, 22-mer] | 6.7 ± 0.3 | – | –
2 | 1.3 | 16 | ~2 | increased | leptin: plasma protein of 16 kDa produced by adipocytes; recombinant human or mouse leptin, species depends on the experiment | – | ≥ 10 | did not increase mRNA levels significantly
